{"source": "patent US20110201109", "biological_target": "Ronin (protein product of the cDNA clone from the human ES cell cDNA expression library) (UniProt Q96EK4)", "sequence (Q96EK4 whole entry)": "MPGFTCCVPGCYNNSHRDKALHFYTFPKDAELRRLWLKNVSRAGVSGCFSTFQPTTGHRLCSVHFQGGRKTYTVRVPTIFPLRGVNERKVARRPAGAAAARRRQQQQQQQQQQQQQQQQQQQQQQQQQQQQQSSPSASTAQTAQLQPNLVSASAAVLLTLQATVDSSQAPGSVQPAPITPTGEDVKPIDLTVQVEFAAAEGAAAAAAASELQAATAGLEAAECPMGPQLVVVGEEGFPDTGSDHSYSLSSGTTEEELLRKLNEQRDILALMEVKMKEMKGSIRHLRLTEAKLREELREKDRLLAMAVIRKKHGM", "data": [{"substance": "Caspase-3 (as used in the in vitro transcription/translation Caspase-3 cleavage assay)", "values": [{"measurement": "in vitro transcription/translation Caspase-3 cleavage assay", "result": "proved to be an authentic target of Caspase-3 in further analyses"}]}]}
